# Laboratory results taken from article PMC10495444.
# What was measured:
# [1] = target: mXkr4ΔC Q332E (aXkr4), constitutively active mutant, fused with monomeric EGFP (mouse); assay: SEC + native gel or EMSA; whole lysate of transfected HEK293T cells in LMNG/GDN 1:1 loaded on Superdex Increase 200 10/300 GL (10 mM HEPES-NaOH pH 7.5, 150 mM NaCl, 0.01% LMNG/GDN, 10% glycerol, 1 mM CaCl2 or 0.5 mM EGTA); dimer fraction collected by EGFP fluorescence; then BN-PAGE with anti-V5 blot after 1 h at 4, 16, 25 or 37 °C
# [2] = target: mouse Xkr4 C-terminal cleaved form (mXkr4ΔC) fused with monomeric EGFP (mouse); assay: as above
stoichiometry N [1],stoichiometry N [2],Substance
2,,"mXkr4ΔC Q332E (aXkr4), constitutively active mutant, fused with monomeric EGFP (domain or fragment)"
,2,mouse Xkr4 C-terminal cleaved form (mXkr4ΔC) fused with monomeric EGFP (domain or fragment)
